Laboratory results published in US20170362293A1 (GENEXINE, published 2017).

Target: GLP-2R
Experiment: cell-based or functional assay

- membrane depolarization induced by increased intracellular cAMP in GLP-2R-expressing 293 cells; activity relative to GLP-2-2G peptide set at 100%: 98%
B1: GLP-2-hyFc9 fusion polypeptide (Fc fusion)
chain: HGDGSFSDEMNTILDNLAARDFINWLIQTKITDAKATTAPATTRNTGRGGEEKKKEKEKEEQEERETKTPECPSHTQPLGVFLFPPKPKDTLMISRTPEVTCVVVDVSQEDPEVQFNWYVDGVEVHNAKTKPREEQFNSTYRVVSVLTVLHQDWLNGKEYKCKVSNKGLPSSIEKTISKAKGQPREPQVYTLPPSQEEMTKNQVSLTCLVKGFYPSDIAVEWESNGQPENNYKTTPPVLDSDGSFFLYSRLTVDKSRWQEGNVFSCSVMHEALHNHYTQKSLSLSLGK
